Source: PMC9784774
pKd: −log10 of the molar value.

Tests used:
MAb MSL-109 = assay: ELISA; conditions: read off a plot
[1] = biological target: recombinant gH/gL/gO trimer (human cytomegalovirus | human cytomegalovirus strain VR1814); assay: SPR; Biacore X100, CM5 chip, RT, 1:1 binding model; methods: antibody (4 μg/mL) captured by anti-human Fc IgG to about 100 RU, pentamer or trimer in five 2-fold dilutions injected at 30 μL/min, 90 s association, 600 s dissociation (the legend of Fig. 5 tells the reverse orientation)

pKd [1] | koff [1] [s⁻¹] | kon [1] [M⁻¹ s⁻¹] | Substance | percent of parent (MAb MSL-109) [%]
 |  |  | recombinant gH/gL/UL128/UL130/UL131A pentamer (wild type) gH:P171A | 6
 |  |  | recombinant gH/gL/UL128/UL130/UL131A pentamer (wild type) gH:D446A | 46
 |  |  | recombinant gH/gL/UL128/UL130/UL131A pentamer (wild type) gH:W168A | 3
7.68 | 0.00987 | 476000 | MAb MSL-109 (antibody) | 
